Measurements from PMC9980222.

Assays:
[1] = target: BG505 SOSIP.664-His trimer (HIV-1 isolate BG505 (Clade A))
[2] = target: B41 SOSIP.664-His trimer (HIV-1 isolate B41 (Clade B)); experiment: negative-stain electron microscopy
[3] = target: B41 SOSIP.664-His trimer (HIV-1 isolate B41 (Clade B)); experiment: native gel or EMSA
[4] = target: BG505 SOSIP.664-His trimer (HIV-1 isolate BG505 (Clade A)); experiment: SPR

Work on PGT151 IgG (antibody) yielded an IC50 of neutralization of BG505 Env-pseudotyped virus, TZM-bl assay [1] of 0.043 µg/mL.

B41 SOSIP.664-His trimer (complex) gave a stoichiometry N [2] of 3 and a stoichiometry N [3] of 3.

Substance PGT151 Fab has a KD1 (site 1, heterogeneous-ligand model) [4] of less than 0.1 nM, a KD2 (site 2, heterogeneous-ligand model) [4] of 27 nM and a Kd [4] of 2 nM. It also gave a Sm1 (stoichiometry of site 1, heterogeneous-ligand model) (Fab molecules per trimer) [4] of 1.2, a Sm1+Sm2 (cumulative stoichiometry, heterogeneous-ligand model) (Fab molecules per trimer) [4] of 1.9 and a Sm2 (stoichiometry of site 2, heterogeneous-ligand model) (Fab molecules per trimer) [4] of 0.7. It also gave a koff [4] of 0.00018 s⁻¹, a koff1 (site 1, heterogeneous-ligand model) [4] of less than 1e-05 s⁻¹ and a koff2 (site 2, heterogeneous-ligand model) [4] of 0.00076 s⁻¹. The kon [4] was 87000 M⁻¹ s⁻¹, the kon1 (site 1, heterogeneous-ligand model) [4] was 140000 M⁻¹ s⁻¹ and the kon2 (site 2, heterogeneous-ligand model) [4] was 28000 M⁻¹ s⁻¹. For the same substance, the stoichiometry N (Fab molecules per trimer) [4] was 1.9.
